Broadly, the Kd is the equilibrium constant for the complex coming apart. A low value points to tighter binding.

Assay [1] has as its target T1, Na-Cl co-transporter (NCC) (Mus musculus, UniProt P59158).
T1 chain: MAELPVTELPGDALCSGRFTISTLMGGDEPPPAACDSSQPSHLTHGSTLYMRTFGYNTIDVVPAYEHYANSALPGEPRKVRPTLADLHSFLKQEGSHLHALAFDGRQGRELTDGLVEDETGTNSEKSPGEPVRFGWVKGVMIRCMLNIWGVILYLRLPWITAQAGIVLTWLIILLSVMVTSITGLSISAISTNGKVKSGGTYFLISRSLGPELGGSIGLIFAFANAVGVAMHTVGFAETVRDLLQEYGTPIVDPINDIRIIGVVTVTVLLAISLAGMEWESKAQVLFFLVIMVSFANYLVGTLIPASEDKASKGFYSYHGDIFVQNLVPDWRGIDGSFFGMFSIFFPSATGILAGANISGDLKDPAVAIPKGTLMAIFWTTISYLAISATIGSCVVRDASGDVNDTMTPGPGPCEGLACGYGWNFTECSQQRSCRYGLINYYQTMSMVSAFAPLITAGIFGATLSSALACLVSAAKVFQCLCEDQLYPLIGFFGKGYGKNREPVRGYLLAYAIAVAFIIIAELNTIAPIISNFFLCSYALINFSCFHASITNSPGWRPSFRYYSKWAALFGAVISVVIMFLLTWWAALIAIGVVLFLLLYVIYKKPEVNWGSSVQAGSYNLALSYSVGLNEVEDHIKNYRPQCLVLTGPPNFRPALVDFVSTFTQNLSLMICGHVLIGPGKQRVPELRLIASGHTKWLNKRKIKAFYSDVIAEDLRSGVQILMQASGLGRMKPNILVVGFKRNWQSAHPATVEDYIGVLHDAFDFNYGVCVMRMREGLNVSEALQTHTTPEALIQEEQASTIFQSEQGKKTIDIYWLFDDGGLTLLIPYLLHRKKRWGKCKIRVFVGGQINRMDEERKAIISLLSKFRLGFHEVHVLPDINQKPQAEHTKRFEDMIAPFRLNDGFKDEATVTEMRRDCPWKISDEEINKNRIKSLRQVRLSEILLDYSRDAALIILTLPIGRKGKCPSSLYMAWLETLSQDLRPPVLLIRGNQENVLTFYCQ
Briefly: FITC-IL18 binding to NCC-transfected COS-7 cell membranes, Scatchard analysis.

The target of assay [2] is T1, Na-Cl co-transporter (NCC).

Read-outs that look alike come from different tables or passages of the source.

B1: IL-18 (protein)
chain: NFGRLHCTTAVIRNINDQVLFVDKRQPVFEDMTDIDQSASEPQTRLIIYMYKDSEVRGLAVTLSVKDSKMSTLSCKNKIISFEEMDPPENIDDIQSDLIFFQKRVPGHNKMEFESSLYEGHFLACQKEDDAFKLILKKKDENGDKSVMFTLTNLHQS
modifications: FITC-conjugated IL18
Turning to B1, the Kd in assay [1] worked out at 0.0173 µM; in assay [2], 0.0214 µM.
